Starred links: 1 amine or outer side, 2 acyl side, 3 side chain; linkers in the order of their positions; H or OH if unused. Non-standard residues stand in square brackets, D forms with d. Groups on a side chain read outwards from the residue. No end group written: not given here. *: point of attachment. C18 diacid = O=C(O)CCCCCCCCCCCCCCCCC(=O)*; γGlu = O=C(O)[C@H](CCC(=O)[*:2])N[*:1]; αMeL = CC(C)C[C@](C)(N)C(=O)O; Dab = NCC[C@H](N)C(=O)O; AEEA = NCCOCCOCC(=O)O; Aib = CC(C)(N)C(=O)O
T1: human GIP receptor (human) (UniProt P48546)
T1 sequence (looked up): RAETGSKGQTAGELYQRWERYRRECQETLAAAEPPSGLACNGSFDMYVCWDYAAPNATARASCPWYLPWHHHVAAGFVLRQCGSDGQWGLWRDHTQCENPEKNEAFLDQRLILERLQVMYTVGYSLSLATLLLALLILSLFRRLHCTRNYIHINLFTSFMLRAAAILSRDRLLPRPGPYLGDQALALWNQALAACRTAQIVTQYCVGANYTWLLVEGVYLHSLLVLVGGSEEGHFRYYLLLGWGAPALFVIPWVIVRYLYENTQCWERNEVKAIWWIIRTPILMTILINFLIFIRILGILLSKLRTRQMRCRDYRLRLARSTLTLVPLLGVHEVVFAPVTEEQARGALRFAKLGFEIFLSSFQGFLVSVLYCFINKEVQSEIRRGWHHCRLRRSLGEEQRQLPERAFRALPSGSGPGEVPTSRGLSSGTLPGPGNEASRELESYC


Assays:
Experiment in all cases: cell-based or functional assay
hGLP-1R = hGLP-1R (Homo sapiens, UniProt P43220)
[1] = target: T1, human GIP receptor (human)
[2] = target: human glucagon receptor (human) (UniProt P47871)
Chain of human glucagon receptor (human) (P47871 26-477): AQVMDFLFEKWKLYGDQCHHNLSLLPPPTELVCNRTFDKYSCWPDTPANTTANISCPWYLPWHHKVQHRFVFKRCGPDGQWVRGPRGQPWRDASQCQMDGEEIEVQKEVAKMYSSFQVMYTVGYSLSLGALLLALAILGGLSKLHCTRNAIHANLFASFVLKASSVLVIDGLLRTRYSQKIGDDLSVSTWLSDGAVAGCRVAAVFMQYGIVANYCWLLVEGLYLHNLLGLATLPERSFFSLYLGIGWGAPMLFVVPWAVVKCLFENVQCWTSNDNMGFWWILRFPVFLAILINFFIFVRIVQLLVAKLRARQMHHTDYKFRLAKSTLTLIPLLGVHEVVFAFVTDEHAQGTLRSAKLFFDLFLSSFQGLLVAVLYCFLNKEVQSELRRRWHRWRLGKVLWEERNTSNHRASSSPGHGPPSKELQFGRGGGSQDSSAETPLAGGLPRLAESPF

Chain of hGLP-1R (P43220 24-463): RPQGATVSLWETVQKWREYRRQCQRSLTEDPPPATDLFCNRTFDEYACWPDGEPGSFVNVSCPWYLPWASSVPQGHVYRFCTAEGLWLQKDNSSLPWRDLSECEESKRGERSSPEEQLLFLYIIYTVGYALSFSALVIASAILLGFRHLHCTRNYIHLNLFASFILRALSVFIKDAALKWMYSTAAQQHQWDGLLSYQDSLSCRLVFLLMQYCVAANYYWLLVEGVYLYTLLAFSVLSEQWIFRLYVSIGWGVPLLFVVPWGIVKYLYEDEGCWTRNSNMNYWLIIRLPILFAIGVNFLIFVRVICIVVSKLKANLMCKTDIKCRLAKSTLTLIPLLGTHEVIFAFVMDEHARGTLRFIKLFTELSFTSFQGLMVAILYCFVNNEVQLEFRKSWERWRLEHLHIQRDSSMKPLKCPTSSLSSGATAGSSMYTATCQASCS

Row | Binder | Relative cAMP EC50, nM (0.1% casein) (hGLP-1R) [nM] | cAMP Rel EC50, nM (1% HSA) (hGLP-1R) [nM] | Relative cAMP EC50, nM (0.1% casein) [1] [nM] | cAMP Rel EC50, nM (1% HSA) [1] [nM] | Relative cAMP EC50, nM (0.1% casein) [2] [nM] | cAMP Rel EC50, nM (1% HSA) [2] [nM] | Relative cAMP EC50 (hGLP-1R) [nM] | cAMP Rel EC50, nM (in the presence of 1% HSA) (hGLP-1R) [nM] | Relative cAMP EC50 [1] [nM] | cAMP Rel EC50, nM (in the presence of 1% HSA) [1] [nM] | Relative cAMP EC50 [2] [nM] | cAMP Rel EC50, nM (in the presence of 1% HSA) [2] [nM]
1 | YXQGTFTSDXSXXLDKKAQXAFIEYLLEXGHSSGAPPPSGS (synthetic construct; SITE 2: note = 2-Aminoisobutyric Acid; SITE 10: note = 4-cyano-L-phenylalanine; SITE 12: note = L-ornithine; SITE 13: note = alpha-methyl-leucine; SITE 17: note = Lysine is chemically modified through conjugation of the epsilon-amino group of the Lysine side chain with (2-[2-(2-) [Example 190] | 1.41 | 172 | 0.306 | 59.4 | 2.95 | 331 |  |  |  |  |  | 
2 | YXQGTFTSDFSQXLDKKAQXAFIEYLLEGGPSSGAPPPSGS (synthetic construct; SITE 2: note = 2-Aminoisobutyric Acid; SITE 13: note = alpha-methyl-leucine; SITE 17: note = Lysine is chemically modified through conjugation of the epsilon-amino group of the Lysine side chain with (2-[2-(2-Amino-ethoxy)-ethoxy]-acetyl)-(gamma-Glu)-CO-(CH2) 16-CO2H; SITE 20: n) [Example 150] | 2.63 | 463 | 0.346 | 50.6 | 5.37 | 1920 |  |  |  |  |  | 
3 | YXQGTFTSDFSXXLDKKAQXAFIEYLLEXGESSGAPPPSGT (synthetic construct; SITE 2: note = 2-Aminoisobutyric Acid; SITE 12: note = L-ornithine; SITE 13: note = alpha-methyl-leucine; SITE 17: note = Lysine is chemically modified through conjugation of the epsilon-amino group of the Lysine side chain with (2-[2-(2-Amino-ethoxy)-ethoxy]-acetyl)2-(gamma-Glu)) [Example 180] | 5.08 | 891 | 0.14 | 24 | 2.44 | 1320 |  |  |  |  |  | 
4 | YXQGTFTSDFSXXLDKKAQXAFIEYLLEGGPSSGEPPPSGS (synthetic construct; SITE 2: note = 2-Aminoisobutyric Acid; SITE 12: note = L-ornithine; SITE 13: note = alpha-methyl-leucine; SITE 17: note = Lysine is chemically modified through conjugation of the epsilon-amino group of the Lysine side chain with (2-[2-(2-Amino-ethoxy)-ethoxy]-acetyl)-(gamma-Glu)) [Example 131] |  |  |  |  |  |  | 5.51 | 984 | 0.416 | 91.8 | 2.64 | 976
5 | YXQGTFTSDFSXXLDKKAQXAFIEYLLEGGESSGAPPPSGS (synthetic construct; SITE 2: note = 2-Aminoisobutyric Acid; SITE 12: note = L-ornithine; SITE 13: note = alpha-methyl-leucine; SITE 17: note = Lysine is chemically modified through conjugation of the epsilon-amino group of the Lysine side chain with (2-[2-(2-Amino-ethoxy)-ethoxy]-acetyl)-(gamma-Glu)) [Example 145] |  |  |  |  |  |  | 4.26 | 1480 | 0.539 | 108 | 3.14 | 693
6 | YXQGTFTSDFSXXLDKKAQXAFIEYLLEGGPSSGAPPPEGT (synthetic construct; SITE 2: note = 2-Aminoisobutyric Acid; SITE 12: note = L-ornithine; SITE 13: note = alpha-methyl-leucine; SITE 17: note = Lysine is chemically modified through conjugation of the epsilon-amino group of the Lysine side chain with (2-[2-(2-Amino-ethoxy)-ethoxy]-acetyl)-(gamma-Glu)) [Example 160] | 5.39 | 482 | 0.354 | 44.4 | 4.32 | 479 |  |  |  |  |  | 
7 | YXQGTFTSDXSXXLDKKAQXAFIEYLLEXGPSSGAPPPSGS (non-natural residues; lysine acylated AEEA-γGlu-C18 diacid; C-terminal amide; synthetic construct; SITE 2: note = 2-Aminoisobutyric Acid; SITE 10: note = 4-cyano-L-phenylalanine; SITE 12: note = L-ornithine; SITE 13: note = alpha-methyl-leucine; SITE 17: note = Lysine is chemically modified through conjugation of the epsilon-amino group of the Lysine side chain with (2-[2-(2-) [Example 191] | 2.48 |  | 0.422 |  | 2.11 |  |  |  |  |  |  | 
8 | YXQGTFTSDFSXXLDKKAQXAFIEYLLEAGPSSGEPPPSGE (synthetic construct; SITE 2: note = 2-Aminoisobutyric Acid; SITE 12: note = L-ornithine; SITE 13: note = alpha-methyl-leucine; SITE 17: note = Lysine is chemically modified through conjugation of the epsilon-amino group of the Lysine side chain with (2-[2-(2-Amino-ethoxy)-ethoxy]-acetyl)-(gamma-Glu)) [Example 135] |  |  |  |  |  |  | 3.3 | 472 | 0.246 | 23.4 | 2.53 | 557
9 | YXQGTFTSDFSXXLDKKAQXAFIEYLLEXGXSSGAPPPSGT (synthetic construct; SITE 2: note = 2-Aminoisobutyric Acid; SITE 12: note = L-ornithine; SITE 13: note = alpha-methyl-leucine; SITE 17: note = Lysine is chemically modified through conjugation of the epsilon-amino group of the Lysine side chain with (2-[2-(2-Amino-ethoxy)-ethoxy]-acetyl)2-(gamma-Glu)) [Example 184] | 5.02 | 465 | 0.162 | 16.2 | 5.23 | 1050 |  |  |  |  |  | 
10 | YXQGTFTSDFSXXLDKKAQXAFIEYLLAGGPSSGEPPPEGS (synthetic construct; SITE 2: note = 2-Aminoisobutyric Acid; SITE 12: note = L-ornithine; SITE 13: note = alpha-methyl-leucine; SITE 17: note = Lysine is chemically modified through conjugation of the epsilon-amino group of the Lysine side chain with (2-[2-(2-Amino-ethoxy)-ethoxy]-acetyl)-(gamma-Glu)) [Example 152] | 4.03 | 491 | 0.259 | 23.2 | 6.91 | 1090 |  |  |  |  |  | 
11 | YXQGTFTSDFSXXLDKKAQXAFIEYLLEGGESSGAPPPGGS (synthetic construct; SITE 2: note = 2-Aminoisobutyric Acid; SITE 12: note = L-ornithine; SITE 13: note = alpha-methyl-leucine; SITE 17: note = Lysine is chemically modified through conjugation of the epsilon-amino group of the Lysine side chain with (2-[2-(2-Amino-ethoxy)-ethoxy]-acetyl)-(gamma-Glu)) [Example 161] | 5.22 | 963 | 0.555 | 87.3 | 4.83 | 902 |  |  |  |  |  | 
12 | YXQGTFTSDFSRXLDKKAQXAFIEYLLEGGESSGAPPPSGS (synthetic construct; SITE 2: note = 2-Aminoisobutyric Acid; SITE 13: note = alpha-methyl-leucine; SITE 17: note = Lysine is chemically modified through conjugation of the epsilon-amino group of the Lysine side chain with (2-[2-(2-Amino-ethoxy)-ethoxy]-acetyl)2-(gamma-Glu)-CO-(CH2 )16-CO2H; SITE 20:) [Example 149] | 3.85 | 801 | 0.46 | 44.9 | 12.6 | 1420 |  |  |  |  |  | 
13 | Y[Aib]QGTFTSDFS[Dab][αMeL]LDKK([AEEA-γGlu-C18 diacid])AQ[Aib]AFIEYLLE[Aib]GPSSGAPPPSGS-NH2 (ends and bridges not checked) [Example 133] |  |  |  |  |  |  | 3.6 | 1180 | 0.15 | 23.1 | 1.64 | 642
